In patent US20130071921A1 (Pfizer, published 2013):

Experiments:
[1] = target: T1, recombinant rat Dkk-1 (R&D systems Cat No. 4010-DK/CF) (rat); experiment: TMDD PK/PD model fit to rat serum data in vivo; derived as Koff/Kon
T1 construct: Bought

[2] = target: T2, Recombinant human Dkk-1 (R&D Systems cat no. 1096-DK/CF), 10xHis tag at the C terminal (human, UniProt O94907 32-266); experiment: SPR BIAcore 25C, huMabJC18 IgG amine-coupled, human Dkk1 injected
T2 construct: the actual N-terminus of the purified protein is marked in bold italic after residue 30, but the mark is an image lost in the text; also called rhuDkk-1; hDkk-1
T2 sequence: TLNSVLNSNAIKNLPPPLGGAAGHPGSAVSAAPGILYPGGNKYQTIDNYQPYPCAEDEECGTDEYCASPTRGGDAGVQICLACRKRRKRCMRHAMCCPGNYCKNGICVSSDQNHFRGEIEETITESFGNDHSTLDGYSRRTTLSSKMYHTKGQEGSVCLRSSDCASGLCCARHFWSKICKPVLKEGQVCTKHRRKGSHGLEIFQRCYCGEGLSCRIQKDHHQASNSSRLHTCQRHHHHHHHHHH
Protocol: The affinity of huMabJC18 to human, mouse or rat Dkk1 was determined by using the BIAcore3000™ surface plasmon resonance (SPR) system (BIAcore Inc., Piscataway, N.J.), equipped with a CM5 sensor chip (BIAcore AB, Uppsala, Sweden). For the huMabJC18-human Dkk1 interaction analysis, reaction surfaces were generated by amine coupling of huMabJC18 to three flow cells (Fc2, Fc3 and Fc4). CM5 chips were activated with N-ethyl-N′-(3-dimethylaminopropyl)-carbodiinide hydrochloride (EDC) and N-hydroxysuccinimide (NHS) according to the supplier's instructions. The huMabJC18 IgG was diluted into 10 mM sodium acetate pH 4.0 and injected over the activated chip at a concentration of 30 μg/ml.
Using variable flow time across the individual chip channels, a range of antibody density was achieved: 200-800 response units (RU). The IgG and reference surfaces were then saturated with goat Fab2 anti-human Fc (Cappel 55053) to prevent nonspecific binding by Dkk-1 to the chip surface. The chip was then blocked with ethanolamine. Assays were performed at 25° C., with a BIAcore running buffer composed of HBS-EP (0.01M HEPES, pH 7.4, 0.15 NaCl, 3 mM EDTA, 0.005% Surfactant P20)+2 mg/ml BSA+2 mg/ml CM Dextran. A five membered, three fold dilution series starting at 30.9 nM purified human Dkk1 (R&D Systems) protein was injected for 1.5 min at 100 μL/min, and dissociation was monitored for […]. Kinetic association rates (kₒₙ) and dissociation rates (koff) were obtained simultaneously by fitting the data to a 1:1 Langmuir binding model (Karlsson, R. Roos, H. Fagerstam, L. Petersson, B. (1994). Methods Enzymology 6. 99-110) using the BIAevaluation program. Equilibrium dissociation constant (KD) values were calculated as koff/kₒₙ.

[3] = target: T3, recombinant human Dkk4 (R&D systems Cat No. 1269-DK/CF) (human, UniProt Q9UBT3 19-224); experiment: SPR BIAcore, huMabJC18 captured by goat Fab2 anti-human Fc, hDkk-4 titrated from 76.3 nM
T3 construct: Bought; also called hDkk-4
T3 sequence (looked up): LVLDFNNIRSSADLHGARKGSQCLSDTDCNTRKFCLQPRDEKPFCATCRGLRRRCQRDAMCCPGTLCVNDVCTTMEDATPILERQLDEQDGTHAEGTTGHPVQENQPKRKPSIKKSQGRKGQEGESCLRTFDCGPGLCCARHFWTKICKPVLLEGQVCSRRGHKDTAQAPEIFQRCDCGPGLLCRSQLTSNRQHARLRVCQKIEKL

[4] = target: T1, recombinant rat Dkk-1 (R&D systems Cat …); experiment: SPR BIAcore, huMabJC18 captured by goat Fab2 anti-human Fc, rat Dkk-1 injected
Protocol: For the interaction analyses of huMabJC18 with mouse or rat Dkk-1, low-levels of huMabJC18 (typically, 100-400 response units) were captured on individual flow cells by goat Fab2 anti-human Fc, which was pre-immobilized to the CM5 chip surface. A goat Fab2 anti-human Fc-saturated flow cell containing no humanized antibody served as reference channel. Mouse or rat Dkk-1 (R&D Systems) was titrated over the chip using 70.1 nM or 30.2 nM as top concentration, respectively, of a three-fold dilution series Association and dissociation phases were monitored at 100 μL/min for 90 seconds and 30 minutes, respectively. Capture surfaces for all experiments were regenerated with two 30 second pulses of […] H₃PO₄, except for the amine-coupled huMabJC18 surface used in the human Dkk-1 experiment, which was not regenerated.

[5] = target: T4, recombinant mouse Dkk-1 (R&D systems Cat No. 1765-DK/CF) (mouse, UniProt O54908 32-272); experiment: SPR BIAcore 3000, CM5 chip (Table 8)
T4 construct: Bought
T4 sequence (looked up): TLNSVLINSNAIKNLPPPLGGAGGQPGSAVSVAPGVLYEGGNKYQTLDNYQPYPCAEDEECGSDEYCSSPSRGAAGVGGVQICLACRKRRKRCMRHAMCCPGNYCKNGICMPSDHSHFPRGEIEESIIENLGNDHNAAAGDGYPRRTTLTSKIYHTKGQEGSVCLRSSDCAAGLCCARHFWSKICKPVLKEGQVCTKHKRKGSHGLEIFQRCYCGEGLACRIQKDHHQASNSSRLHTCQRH

[6] = target: T2, Recombinant human Dkk-1 (R&D Systems …); experiment: SPR BIAcore 3000, CM5 chip (Table 8)
[7] = target: T1, recombinant rat Dkk-1 (R&D systems Cat …); experiment: SPR BIAcore 3000, CM5 chip (Table 8)
Cynomolgous monkey Dkk-1 = Cynomolgous monkey Dkk-1 (cynomolgous monkey); experiment: SPR BIAcore 3000, CM5 chip (Table 8)

Kd [1]: 34.8 pM
Kd [2]: < 2 pM
T1/2 [2]: > 96.3 h
koff [2]: < 2e-06 s⁻¹
kon [2]: > 1.3e+06 M⁻¹ s⁻¹
Kd [3]: 11000 pM
T1/2 [3]: 1.12 h
koff [3]: 0.000172 s⁻¹
kon [3]: 15000 M⁻¹ s⁻¹
Kd [4]: < 100 pM
T1/2 [4]: 0.92 h
koff [4]: 0.00021 s⁻¹
kon [4]: > 1.3e+06 M⁻¹ s⁻¹
Kd [5]: < 30 pM
T1/2 [5]: > 4.94 h
koff [5]: < 3.9e-05 s⁻¹
kon [5]: > 1.3e+06 M⁻¹ s⁻¹
Kd [6]: < 2 pM
T1/2 [6]: > 96.3 h
koff [6]: < 2e-06 s⁻¹
kon [6]: > 1.3e+06 M⁻¹ s⁻¹
Kd [7]: < 100 pM
T1/2 [7]: 0.92 h
koff [7]: 0.00021 s⁻¹
kon [7]: > 1.3e+06 M⁻¹ s⁻¹
T1/2 (Cynomolgous monkey Dkk-1): > 5 h
koff (Cynomolgous monkey Dkk-1): < 6e-05 s⁻¹
B1: huMabJC18, fully humanized anti-Dkk-1 monoclonal antibody (antibody, human IgG2, kappa, V domains shown)
VH: EVQLVESGGGLVQPGGSLRLSCAASGFTFSSYAISWVRQAPGKGLEWVASVSGTGLGFQTYYPDSVKGRFTISRDNAKNSLYLQMNSLRAEDTAVYYCATSLENYAFDYWGQGTTVTVSS
VL: EIVLTQSPATLSLSPGERATLSCRASESVDDFGISFINWYQQKPGQAPRLLIYAGSKQGSGIPARFSGSGSGTDFTLTISSLEPEDFAVYYCQQLKEVPPTFGGGTKVEIKR
notes: IgG2(delta a: A329S, P330S), kappa; also called huMabJC18 IgG
